*1 amine or outer side, *2 acyl side, *3 side chain or, on linkers, in order; H or OH if unused. Side-chain parts run from the residue outwards. The star is where a group is joined. C18 diacid = O=C(O)CCCCCCCCCCCCCCCCC(=O)*; γGlu = O=C(O)[C@H](CCC(=O)[*:2])N[*:1]; Isovaleryl = CC(C)CC(=O)*; Ahx = NCCCCCC(=O)O
T1: human NPY2 receptor (human, UniProt P49146 1-381)
T1 construct: whole, on cells; also called hNPY2-R; hNPY2R
T1 sequence (looked up): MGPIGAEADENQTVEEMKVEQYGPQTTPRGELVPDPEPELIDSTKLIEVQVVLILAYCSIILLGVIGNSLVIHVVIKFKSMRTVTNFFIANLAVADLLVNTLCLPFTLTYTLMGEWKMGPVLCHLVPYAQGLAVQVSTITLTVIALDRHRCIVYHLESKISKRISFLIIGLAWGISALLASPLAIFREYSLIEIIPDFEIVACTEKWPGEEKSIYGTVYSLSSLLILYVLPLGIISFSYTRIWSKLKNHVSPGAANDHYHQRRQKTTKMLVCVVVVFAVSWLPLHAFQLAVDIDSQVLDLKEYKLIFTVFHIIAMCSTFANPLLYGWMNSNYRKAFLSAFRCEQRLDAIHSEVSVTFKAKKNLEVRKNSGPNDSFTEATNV

B1: Compound 66 (peptide)
peptide: Isovaleryl-APEK([Ahx-γGlu-C18 diacid])PEEDATPEELQRYYISLRHYYNWLTRQRY-NH2
SMILES: CC[C@H](C)[C@H](NC(=O)[C@H](Cc1ccc(O)cc1)NC(=O)[C@H](Cc1ccc(O)cc1)NC(=O)[C@H](CCCNC(=N)N)NC(=O)[C@H](CCC(N)=O)NC(=O)[C@H](CC(C)C)NC(=O)[C@H](CCC(=O)O)NC(=O)[C@H](CCC(=O)O)NC(=O)[C@@H]1CCCN1C(=O)[C@@H](NC(=O)[C@H](C)NC(=O)[C@H](CC(=O)O)NC(=O)[C@H](CCC(=O)O)NC(=O)[C@H](CCC(=O)O)NC(=O)[C@@H]1CCCN1C(=O)[C@H](CCCCNC(=O)CCCCCNC(=O)CC[C@H](NC(=O)CCCCCCCCCCCCCCCCC(=O)O)C(=O)O)NC(=O)[C@H](CCC(=O)O)NC(=O)[C@@H]1CCCN1C(=O)[C@H](C)NC(=O)CC(C)C)[C@@H](C)O)C(=O)N[C@@H](CO)C(=O)N[C@@H](CC(C)C)C(=O)N[C@@H](CCCNC(=N)N)C(=O)N[C@@H](Cc1c[nH]cn1)C(=O)N[C@@H](Cc1ccc(O)cc1)C(=O)N[C@@H](Cc1ccc(O)cc1)C(=O)N[C@@H](CC(N)=O)C(=O)N[C@@H](Cc1c[nH]c2ccccc12)C(=O)N[C@@H](CC(C)C)C(=O)N[C@H](C(=O)N[C@@H](CCCNC(=N)N)C(=O)N[C@@H](CCC(N)=O)C(=O)N[C@@H](CCCNC(=N)N)C(=O)N[C@@H](Cc1ccc(O)cc1)C(N)=O)[C@@H](C)O
B2: Compound 68 (peptide)
peptide: Isovaleryl-APEK([Ahx-γGlu-C18 diacid])PEEDAEPEELQRYYVSLRHYYQWLTRQRY-NH2
SMILES: CC(C)CC(=O)N[C@@H](C)C(=O)N1CCC[C@H]1C(=O)N[C@@H](CCC(=O)O)C(=O)N[C@@H](CCCCNC(=O)CCCCCNC(=O)CC[C@H](NC(=O)CCCCCCCCCCCCCCCCC(=O)O)C(=O)O)C(=O)N1CCC[C@H]1C(=O)N[C@@H](CCC(=O)O)C(=O)N[C@@H](CCC(=O)O)C(=O)N[C@@H](CC(=O)O)C(=O)N[C@@H](C)C(=O)N[C@@H](CCC(=O)O)C(=O)N1CCC[C@H]1C(=O)N[C@@H](CCC(=O)O)C(=O)N[C@@H](CCC(=O)O)C(=O)N[C@@H](CC(C)C)C(=O)N[C@@H](CCC(N)=O)C(=O)N[C@@H](CCCNC(=N)N)C(=O)N[C@@H](Cc1ccc(O)cc1)C(=O)N[C@@H](Cc1ccc(O)cc1)C(=O)N[C@H](C(=O)N[C@@H](CO)C(=O)N[C@@H](CC(C)C)C(=O)N[C@@H](CCCNC(=N)N)C(=O)N[C@@H](Cc1c[nH]cn1)C(=O)N[C@@H](Cc1ccc(O)cc1)C(=O)N[C@@H](Cc1ccc(O)cc1)C(=O)N[C@@H](CCC(N)=O)C(=O)N[C@@H](Cc1c[nH]c2ccccc12)C(=O)N[C@@H](CC(C)C)C(=O)N[C@H](C(=O)N[C@@H](CCCNC(=N)N)C(=O)N[C@@H](CCC(N)=O)C(=O)N[C@@H](CCCNC(=N)N)C(=O)N[C@@H](Cc1ccc(O)cc1)C(N)=O)[C@@H](C)O)C(C)C
B3: Compound 69 (peptide)
peptide: Isovaleryl-APEK([Ahx-γGlu-C18 diacid])PPADASPEETQRYYVSLRHYYNWLTRQRY-NH2
SMILES: CC(C)CC(=O)N[C@@H](C)C(=O)N1CCC[C@H]1C(=O)N[C@@H](CCC(=O)O)C(=O)N[C@@H](CCCCNC(=O)CCCCCNC(=O)CC[C@H](NC(=O)CCCCCCCCCCCCCCCCC(=O)O)C(=O)O)C(=O)N1CCC[C@H]1C(=O)N1CCC[C@H]1C(=O)N[C@@H](C)C(=O)N[C@@H](CC(=O)O)C(=O)N[C@@H](C)C(=O)N[C@@H](CO)C(=O)N1CCC[C@H]1C(=O)N[C@@H](CCC(=O)O)C(=O)N[C@@H](CCC(=O)O)C(=O)N[C@H](C(=O)N[C@@H](CCC(N)=O)C(=O)N[C@@H](CCCNC(=N)N)C(=O)N[C@@H](Cc1ccc(O)cc1)C(=O)N[C@@H](Cc1ccc(O)cc1)C(=O)N[C@H](C(=O)N[C@@H](CO)C(=O)N[C@@H](CC(C)C)C(=O)N[C@@H](CCCNC(=N)N)C(=O)N[C@@H](Cc1c[nH]cn1)C(=O)N[C@@H](Cc1ccc(O)cc1)C(=O)N[C@@H](Cc1ccc(O)cc1)C(=O)N[C@@H](CC(N)=O)C(=O)N[C@@H](Cc1c[nH]c2ccccc12)C(=O)N[C@@H](CC(C)C)C(=O)N[C@H](C(=O)N[C@@H](CCCNC(=N)N)C(=O)N[C@@H](CCC(N)=O)C(=O)N[C@@H](CCCNC(=N)N)C(=O)N[C@@H](Cc1ccc(O)cc1)C(N)=O)[C@@H](C)O)C(C)C)[C@@H](C)O
B4: Compound 73 (peptide)
peptide: Isovaleryl-APEK([Ahx-γGlu-C18 diacid])PEEAASPEELQRYYVALRHYYNWLTRQRY-NH2
SMILES: CC(C)CC(=O)N[C@@H](C)C(=O)N1CCC[C@H]1C(=O)N[C@@H](CCC(=O)O)C(=O)N[C@@H](CCCCNC(=O)CCCCCNC(=O)CC[C@H](NC(=O)CCCCCCCCCCCCCCCCC(=O)O)C(=O)O)C(=O)N1CCC[C@H]1C(=O)N[C@@H](CCC(=O)O)C(=O)N[C@@H](CCC(=O)O)C(=O)N[C@@H](C)C(=O)N[C@@H](C)C(=O)N[C@@H](CO)C(=O)N1CCC[C@H]1C(=O)N[C@@H](CCC(=O)O)C(=O)N[C@@H](CCC(=O)O)C(=O)N[C@@H](CC(C)C)C(=O)N[C@@H](CCC(N)=O)C(=O)N[C@@H](CCCNC(=N)N)C(=O)N[C@@H](Cc1ccc(O)cc1)C(=O)N[C@@H](Cc1ccc(O)cc1)C(=O)N[C@H](C(=O)N[C@@H](C)C(=O)N[C@@H](CC(C)C)C(=O)N[C@@H](CCCNC(=N)N)C(=O)N[C@@H](Cc1c[nH]cn1)C(=O)N[C@@H](Cc1ccc(O)cc1)C(=O)N[C@@H](Cc1ccc(O)cc1)C(=O)N[C@@H](CC(N)=O)C(=O)N[C@@H](Cc1c[nH]c2ccccc12)C(=O)N[C@@H](CC(C)C)C(=O)N[C@H](C(=O)N[C@@H](CCCNC(=N)N)C(=O)N[C@@H](CCC(N)=O)C(=O)N[C@@H](CCCNC(=N)N)C(=O)N[C@@H](Cc1ccc(O)cc1)C(N)=O)[C@@H](C)O)C(C)C
B5: Compound 77 (peptide)
peptide: Isovaleryl-APAK([Ahx-γGlu-C18 diacid])PEEDASPEELQRYYVSLRHYQNWLTRQRY-NH2
SMILES: CC(C)CC(=O)N[C@@H](C)C(=O)N1CCC[C@H]1C(=O)N[C@@H](C)C(=O)N[C@@H](CCCCNC(=O)CCCCCNC(=O)CC[C@H](NC(=O)CCCCCCCCCCCCCCCCC(=O)O)C(=O)O)C(=O)N1CCC[C@H]1C(=O)N[C@@H](CCC(=O)O)C(=O)N[C@@H](CCC(=O)O)C(=O)N[C@@H](CC(=O)O)C(=O)N[C@@H](C)C(=O)N[C@@H](CO)C(=O)N1CCC[C@H]1C(=O)N[C@@H](CCC(=O)O)C(=O)N[C@@H](CCC(=O)O)C(=O)N[C@@H](CC(C)C)C(=O)N[C@@H](CCC(N)=O)C(=O)N[C@@H](CCCNC(=N)N)C(=O)N[C@@H](Cc1ccc(O)cc1)C(=O)N[C@@H](Cc1ccc(O)cc1)C(=O)N[C@H](C(=O)N[C@@H](CO)C(=O)N[C@@H](CC(C)C)C(=O)N[C@@H](CCCNC(=N)N)C(=O)N[C@@H](Cc1c[nH]cn1)C(=O)N[C@@H](Cc1ccc(O)cc1)C(=O)N[C@@H](CCC(N)=O)C(=O)N[C@@H](CC(N)=O)C(=O)N[C@@H](Cc1c[nH]c2ccccc12)C(=O)N[C@@H](CC(C)C)C(=O)N[C@H](C(=O)N[C@@H](CCCNC(=N)N)C(=O)N[C@@H](CCC(N)=O)C(=O)N[C@@H](CCCNC(=N)N)C(=O)N[C@@H](Cc1ccc(O)cc1)C(N)=O)[C@@H](C)O)C(C)C

Molecular target: T1, human NPY2 receptor
Assay: RLB: displacement of 125I-PYY(1-36) from hNPY2R membranes

Row | Binder | Ki
1 | B1 | 2.33 nM
2 | B2 | 9.07 nM
3 | B3 | 0.54 nM
4 | B4 | 2.16 nM
5 | B5 | 9.73 nM
